The series in a line: yeast display, Sf9 membrane polyspecificity reagent, FACS + sequencing; frameworks hold sequencing errors. The method in brief:
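In a synthetic yeast display library (Saccharomyces cerevisiae BJ5465), nanobody expression was induced with galactose for 36–48 hours. FACS gates were set low and high (top ~1%) using anti-HA fluorescence for expression and streptavidin fluorescence for binding of the Sf9 membrane reagent. Each polyreactivity label is drawn from the gate of origin.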
Turning to “QVQLVESGGGLVQAGGSLRLSCAASGRTFYPYVMRWYRQAPGKERELVAAITNRGGSTYYADSVKGRFTISRDNAKKTVYLQMNSLKPEDTAVYYCAKRQVGVGHYDHWGQGTQVTVSS”, the “polyreactivity (PSR sort gate)” value is reported as “low polyreactivity”. As for “QVQLVESGGGLVQAGGSLRLSCAASGRTFYQNAMGWYRQAPGKERELVAAISYRGASTYYADSVKGRFTISRDNAKNTVYLQMHSLKPEDTAVYYCAVAARTRARVLYGYDYWGQGTQVTVSS”, the “polyreactivity (PSR sort gate)” value is recorded as “low polyreactivity”.

“QVQLVESGGGLVQAGGSLRLSCAASGRTFYQYAMGWYRPAPGKERELVAAITTSGGSTYYADSVKGRFTNSRDNAKNTVYLQMNSLKPEDTAVYYCAAPYTGYRERGSYKSDYWGQGTQVTESS”: the “polyreactivity (PSR sort gate)” value is given as “low polyreactivity”. To “QVQLVESGGGLVQAGGSLRLSCAASGRTFYQYAMGWYRQAPGKERELVAAISRSGTSTYYADSVKGRFTISRDNAKNTVYLQMNSLKPEDTAVYYCYVLRYDYWGQGTQVTVSS” belongs “high polyreactivity”; to “QVQLVESGGGLVQAGGSLRLSCAASGRTFYQYAMGWYRQAPGKERELVAAITRRGGSTYYADSVKGRFTISRDNAKNTVYLQMNSLKPDDTAVYYCNAQYKKGFDYWGQGPQVTVSS”, “high polyreactivity”; to “QVQLVESGGGLVQAGGSLRLSCAASGRTFYRKAMGWYRQAPGKERELVAAITYGGGSTYYADSVKGRFTISRDNAKNTVYLQMNSLKPEDTAVYYCNALRNVRTGRTQVLSYYWGQGTQVTVSS”, “high polyreactivity”. To “QVQLVESGGGLVQAGGSLRLSCAASGRTFYRNAMGWYRQAPGKERELFATINSGGSTHYADSVKGRFTISRDNAKNTVYLQMTSLKPEDNAVYYCAARSQSYRGSLSYYWGQGTQVTVSS” belongs “high polyreactivity”; to “QVQLVESGGGLVQAGGSLRLSCAASGRTFYRNAMGWYRQAPGKERELVAAISQRGGRTYYADSVKGRFTISRDNAKNTVYLQMNSLKPEDTAVYYCAASPIYPVYRRHGYWGQGTQVTVSS”, “high polyreactivity”.

Turning to “QVQLVESGGGLVQAGGSLRLSCAASGRTFYRNAMGWYRQAPGKERELVAAISRGDSTYYADSVKGRFTNSRDNAKNTVYLQMNILIPEDTAVYYCAKRARRIGDVNMGSWGQGTQVTVSS”, the “polyreactivity (PSR sort gate)” value is listed as “low polyreactivity”. Next, “QVQLVESGGGLVQAGGSLRLSCAASGRTFYRNPMGWYRQAPAKERELVAANSWSGGRTFYADSVKGRFTISRDNAKNTVYLHMNSMKPEDTAVYYCAKSYTTPGYYRYDYWGQGTQVTVSS”: “high polyreactivity”; “QVQLVESGGGLVQAGGSLRLSCAASGRTFYRSAMGWYRQAPGKERELVAAISSSGGRTYYADSVKGRFTISRDYAKNTVYLQMNSLKPEDTAVYYCNAAPSWSTSFDSWGQGTQVTVSS”: “high polyreactivity”. In the case of “QVQLVESGGGLVQAGGSLRLSCAASGRTFYRYAMGWYRQAPGKERELVAAISSGGSTNYADSVKGRFTISRDNAKNTVYLQMNSLKPEDTAVYYCAAETRLHRQDYDYWGQGTQVTVSS”, the “polyreactivity (PSR sort gate)” value is recorded as “low polyreactivity”.

On to “QVQLVESGGGLVQAGGSLRLSCAASGRTFYRYAMGWYRQAPGKERELVAAISTSGSTTYADSVKGRFTISRDNAKNTVYLQMISLKPEDTAVYYCNAVYYYRPDWRQSNLSQYGYWGQGTQVTVSS”, for which the “polyreactivity (PSR sort gate)” value is on record as “high polyreactivity”. Next, “QVQLVESGGGLVQAGGSLRLSCAASGRTFYRYAMGWYRQAPGKERELVATISSSGRTYYADSVKGRFTISRDNAKNTVYLQMNSLKPEDTAVYYCRFTIKHGSWGQGTQVTVSS”: “high polyreactivity”; “QVQLVESGGGLVQAGGSLRLSCAASGRTFYRYAMGWYRQAPWKERELVAAITKRGSGTYYADSVKGRFTISRDNAKNTVYLQMNSLKPEDTAVYYCATDGYIRPSRPAPTQPTFNYWGQGSQVTVSS”: “high polyreactivity”. On to “QVQLVESGGGLVQAGGSLRLSCAASGRTFYRYVMGWYRQAPGKERELVAAITPGGSTYADSVKGRFTISRDNAKNTVYLQMNSLKPEDTAVYYCNAKVGAYLNYGYWGQGTQVTVSS”, for which the “polyreactivity (PSR sort gate)” value was “low polyreactivity”. Next, “QVQLVESGGGLVQAGGSLRLSCAASGRTFYSNVMGWYIQAPGQERELVASISRGGNTYYADSVKGRFTISRDNAKIPFYLQMNSLKPEDTAVYYCAARQYHSRDFDYWGQGTQVTVSS”: “low polyreactivity”; “QVQLVESGGGLVQAGGSLRLSCAASGRTFYSYAMGWYRPAPGKERELVAAINTSGGRTHYADSVKGRFTISRDNGKNTVYLQMNSLKPEDTAVYYCAAEVFRTRTWEYYYWGQGTQVTVSS”: “high polyreactivity”; “QVQLVESGGGLVQAGGSLRLSCAASGRTFYSYAMGWYRQAPGKERELVAAINTSGGRTHYADSVKGRFTISRDNAKNTVYLQMNSLKPEDTAVYYCAAEVFRTRTWEYYYWGQGTQVTVSS”: “high polyreactivity”. For “QVQLVESGGGLVQAGGSLRLSCAASGRTFYSYAMGWYRQAPGKERELVAGITWSGTSTYYADSVKGRFTISRDNAKNTVYLQMNSLKPEDTAVYYCAADSIQYTARPYDYWGQGTQVTVSS”, the “polyreactivity (PSR sort gate)” value was “low polyreactivity”. Take “QVQLVESGGGLVQAGGSLRLSCAASGRTFYSYSMGWYRQEPGQERELVALITWSGGTYYADSVKGRFTISRDNANNTVYLLMNSLKPEDTAVYYCNKYRPYGRIFHRAYGRDYWGQGTQVTVSS”: the “polyreactivity (PSR sort gate)” value is reported as “high polyreactivity”.

Take “QVQLVESGGGLVQAGGSLRLSCAASGRTFYSYTMGWYRQAPGKDRELVAAITRSGGRTYYADSVKGRFTISRDNAKNTVYLQMNSLKPDDTAVYYCAKGWVSYWRYKNEYWGQGTQVTVSS”: the “polyreactivity (PSR sort gate)” value is listed as “high polyreactivity”.

On to “QVQLVESGGGLVQAGGSLRLSCAASGRTFYSYTMGWYRQAPGKERELVAAINRGGSTYYADSVKGRFTISRDNAKNTVYLQMNSLKPEDTAVYYCNVDWKVYGAPDYRIAWKYDYWGQGTQVTVSS”, for which the “polyreactivity (PSR sort gate)” value is given as “low polyreactivity”. Next, “QVQLVESGGGLVQAGGSLRLSCAASGRTFYSYVMGWYRQAPGKERELVAAINKTGGGTYYADSVKGRFTISRDNAKNTVYLQMNSLKPEDTAVYYCAAETGTGETRYYRYWDYYYWGQGTQVTVSS”: “high polyreactivity”; “QVQLVESGGGLVQAGGSLRLSCAASGRTFYTNALGWYRQAPGKERELVAVISRGGTTYYADSVKGRFTISRDNAKNTVYLQMNSLKPEDTAVYYCAKQRPSGDSSSQMGSWGQGTQVTVSS”: “low polyreactivity”; “QVQLVESGGGLVQAGGSLRLSCAASGRTFYTNAMGWYRQAPGKERELVAAITRGGSTYYADSVKGRFTIPRDNAKNTVYLQMYSLKPEDTAVYYCAAAYASSWRQRVTSEKGYYWGQGTQVTVSS”: “high polyreactivity”. On to “QVQLVESGGGLVQAGGSLRLSCAASGRTFYTNAMGWYRQAPGKERELVAVISRGGTTYYADSVKGRFTISRDNAKNTVYLQMNSLKPEDTAVYYCAKQRPSGESSSQMGSWGQGTQVTVSS”, for which the “polyreactivity (PSR sort gate)” value is “low polyreactivity”. Regarding “QVQLVESGGGLVQAGGSLRLSCAASGRTFYTYAMGWYRPAPGKERELVASISSGGNTNYADSVKGRFTISRDNAKNTVYLQMNSLKPEDTAVYYCAASYLKRRGYWGQGTQVTVSS”, the “polyreactivity (PSR sort gate)” value is recorded as “low polyreactivity”. Next, “QVQLVESGGGLVQAGGSLRLSCAASGRTFYTYAMGWYRQAPGKDREFVAVISGRGARTYYADSVKGRFTISRDNAKNTVYLQMNSLKPEDTAVYYCAAVPPRKDYQHMDYWGQGTQVTVSS”: “low polyreactivity”; “QVQLVESGGGLVQAGGSLRLSCAASGRTFYTYAMGWYRQAPGKERELVAAITRRGGSTFYADSVKGRFTISRDNAKNTVYLQMNSLKPEDTAVYYCAARSTVGPQYGVRFNYWGQGTQVTVSS”: “high polyreactivity”.

The values are drawn from the nanobody polyreactivity screen of Harvey et al. (2022).
